Drawing on article PMC9697831 (2022), this text covers Kd for five molecules.

No end group written: not given here. enterokinase site = enterokinase site: N-terminal 6xHis-tag carrying an enterokinase cleavage site; factor Xa site = factor Xa site: N-terminal 6xHis-tag carrying a factor Xa cleavage site

The assay has as its target Kv1.3 (Homo sapiens, UniProt P22001). The experiment in a line: whole-cell patch clamp.

Kv1.3, sequence (P22001 whole entry): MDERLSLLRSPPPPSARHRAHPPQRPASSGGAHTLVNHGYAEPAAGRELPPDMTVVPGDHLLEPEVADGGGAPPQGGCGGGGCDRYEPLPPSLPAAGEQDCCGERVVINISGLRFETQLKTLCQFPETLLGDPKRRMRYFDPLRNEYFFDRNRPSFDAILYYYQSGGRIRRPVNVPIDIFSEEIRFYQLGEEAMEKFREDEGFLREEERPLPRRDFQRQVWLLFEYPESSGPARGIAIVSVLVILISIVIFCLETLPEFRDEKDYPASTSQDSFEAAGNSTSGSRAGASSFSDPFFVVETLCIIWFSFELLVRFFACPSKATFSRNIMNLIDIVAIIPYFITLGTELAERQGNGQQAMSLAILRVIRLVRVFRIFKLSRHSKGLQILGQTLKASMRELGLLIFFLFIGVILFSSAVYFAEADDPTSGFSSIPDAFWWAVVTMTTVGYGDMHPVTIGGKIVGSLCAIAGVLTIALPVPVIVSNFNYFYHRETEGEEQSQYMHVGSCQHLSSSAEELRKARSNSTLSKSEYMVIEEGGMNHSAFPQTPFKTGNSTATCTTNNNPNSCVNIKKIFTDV

Broadly, the Kd is a measure of binding affinity in units of concentration. The low end stands for tighter binding, the high end for weaker binding. Turning to {6xHis tag-enterokinase site}-WCSTCLDLACGASRECYDPCFKAFGRAHGKCMNNKCRCYT (disulfide (positions not given here); ends not checked) [Ts6 (Tag-Ts6)], the Kd came out at 887 nM.

Molecule {6xHis tag-factor Xa site}-AAAISCVGSPECPPKCRAQGCKNGKCMNRKCECYYC (disulfide (positions not given here); ends not checked) [Vm24 (Tag-Vm24)] had a Kd of 0.0044 nM.

In turn, QKECTGPQHCTNFCRKNKCTHGKCMNRKCKCFNCK [Anuroctoxin (Untag-AnTx)] registered a Kd of 0.72 nM.

Turning to QKECTGPQHCTNFCRKNKCTHGKCMNRKCKCFNCK (N-terminal 6xHis-tag with enterokinase site) [Anuroctoxin (Tag-AnTx)], the Kd turned out to be 1.29 nM.

For WCSTCLDLACGASRECYDPCFKAFGRAHGKCMNNKCRCYT [Ts6 (Untag-Ts6)], binding was characterised by a dissociation constant (Kd) of 29.1 nM.
